From patent US20220193196A1, “Methods for Modulating T Cell Activation” (THE WALTER AND ELIZA HALL INSTITUTE OF MEDICAL RESEARCH, priority 2019, published 2022) come the findings set out here.

“Also recorded” adds a separate entry of the source.

One assay deals with naïve mouse CD4 T cells. The assay can be described thus: Expansion of anti-CD3 activated naïve CD4 T cells (total cell numbers, CTV dilution by flow cytometry). Format: cell-based. The conditions noted are these: for CD4 T cell expansion (total live cell number, dilution of cell division dyes): plate bound anti-CD3 10 μg/ml, titrated doses of soluble recombinant TNF, over 4 days. The protocol: (§1) T cells were isolated from pooled mouse lymph nodes (inguinal, axillary, brachial, superficial cervical and lumbar) and isolated using MACS negative selection kits for CD4+ or CD8+ T cells (Miltenyi Biotec, Auburn, Calif., USA). T cell purity was confirmed by flow cytometry following isolation. For all experiments, T cell purity was between 82.9-98.2%.
(§2) T cells were cultured in RPMI 1640 medium (Invitrogen) supplemented with non-essential amino acids, 1 mM Sodium-pyruvate, 10 mM HEPES, 100 U/ml Penicillin, 100 μg/ml Streptomycin (Invitrogen), 50 μM 2β-mercaptoethanol, 2 mM L-glutamine (Sigma) and 10% FCS (Sigma). Cells were incubated in a humidified environment at 37° C. in 5% CO2. For division tracking experiments, T cells were labelled with Cell Trace Violet (Invitrogen) according to the manufacturer's instructions. T cells were cultured in flat bottom tissue culture plates.
(§3) The following T cell stimulations were used: TCR was stimulated using 10 μg/ml plate bound anti-CD3 (clone 145-2c11, WEHI antibody facility, Australia) unless a different concentration was specified. Recombinant murine TNF was purchased from R&D Systems (Minneapolis, Minn., USA). Recombinant mIL-2 was purchased from Peprotech. Smac-mimetics were purchased from Sellekchem, MA. The TNFR2 agonist mSTAR was prepared according from HEK293 cells were transiently transfected and cells cultured for 5-7 days, supernatants were purified using anti-Flag affinity chromatography, and the concentrations of the recombinant proteins were determined compared to standard proteins.
Triplicate wells were harvested at each time point. To determine absolute cell numbers, the number of live cells per culture was estimated by reference to a known number of Calibrite beads (Becton Dickinson, San Jose, Calif.), added directly to cell culture before collecting. […]
To examine the role of TNFα in T cell co-stimulation, naïve CD4 T cells were isolated from C57Bl/6 mice and stimulated with a range of recombinant mouse TNF concentrations in the presence of T cell receptor (TCR) crosslinking via plate bound anti-CD3 stimulation. CD4 T cells were labelled with the cell division tracking dye cell trace violet (CTV) and the response measured daily over 96 hours by quantifying T cell expansion using flow cytometry.
To determine if the co-stimulation effect of TNF on T cells could be mimicked using an agonist specific for TNFR2, the response of naïve mouse CD4 T cells activated via TCR in the presence of recombinant mouse TNF, or a TNFR2-specific agonist called mSTAR (Rauert et al., 2010; Chopra et al., 2016) was measured. Naïve CD4 T cells were CTV labelled and the response measured by flow cytometry after stimulation with anti-CD3 in the presence of TNF or mSTAR (FIGS. 16 to 19).

The next assay has as its system naïve mouse CD8 T cells. Kind of assay: Expansion of anti-CD3 activated naïve CD8 T cells (total cell numbers, CTV dilution by flow cytometry). Format: cell-based. The note with it: for receptor through which TNF co-stimulates CD8 T cells: CD8 T cells from WT, tnfr1−/− or tnfr2−/− mice, anti-CD3, TNF 5 ng/ml, 4 days. The protocol: as §1, §2, §3
Triplicate wells were harvested at each time point. To determine absolute cell numbers, the number of live cells per culture was estimated by reference to a known number of Calibrite beads (Becton Dickinson, San Jose, Calif.), added directly to cell culture before collecting. Dead cells were identified via uptake of propidium iodide (SigmaAldrich) added to culture before flow cytometry. Flow cytometry was performed on a BD FACS Canto II or Fortessa.
To determine if TNF co-stimulation was restricted to CD4 T cells, or could act on all effector cells from the T cell lineage, co-stimulation of naïve CD8 T cells by TNFα was measured. Naïve CTV labelled CD8 T cells were cultured in the presence of plate bound anti-CD3 with various concentrations of recombinant mouse TNFα and the response measured by flow cytometry.
Naïve CD8 T cells were isolated from WT mice and stimulated with combinations of anti-CD3, TNF and SMAC mimetics. The expansion of CD8 T cells was determined by measuring T cell numbers quantified relative to a known number of quantification beads via flow cytometry.

The test system of a further assay is tnfr1−/− CD4 T cells. Kind of assay: Expansion of anti-CD3 activated CD4 T cells deficient for TNFR1. The format is cell-based, mouse. The conditions noted are these: anti-CD3 10 μg/ml, TNF 5 ng/ml, compared with WT CD4 T cells. The protocol:
(§4) All experiments were performed using C57BL/6 mice bred and maintained under specific pathogen-free conditions in the WEHI animal facilities (Parkville, Victoria, Australia) and used between 8-20 weeks of age. All experiments were performed under the approval of the WEHI Animal Ethics Committee. Tnfr1−/− and Tnfr2−/− mice were maintained at the WEHI.
(§5) T cells were isolated from pooled mouse lymph nodes (inguinal, axillary, brachial, superficial cervical and lumbar) and isolated using MACS negative selection kits for CD4+ or CD8+ T cells (Miltenyi Biotec, Auburn, Calif., USA). T cell purity was confirmed by flow cytometry following isolation. For all experiments, T cell purity was between 82.9-98.2%. […]
(§6) The following T cell stimulations were used: TCR was stimulated using 10 μg/ml plate bound anti-CD3 (clone 145-2c11, WEHI antibody facility, Australia) unless a different concentration was specified. […] The TNFR2 agonist mSTAR was prepared according from HEK293 cells were transiently transfected and cells cultured for 5-7 days, supernatants were purified using anti-Flag affinity chromatography, and the concentrations of the recombinant proteins were determined compared to standard proteins. […]
(§7) To determine the role of TNF receptors 1 (TNFR1) and 2 (TNFR2) as regulators of TNFα driven T cell co-stimulation, the response of T cells deficient for either TNFR1 or TNFR2 was measured. […]

The test system of another assay is tnfr2−/− CD4 T cells. Kind of assay: Expansion of anti-CD3 activated CD4 T cells deficient for TNFR2. Format: cell-based, mouse. The note with it: anti-CD3 10 μg/ml, TNF 5 ng/ml. The protocol:
as §4, §5, §6, §7

A further assay deals with mouse CD8 T cells. The assay can be described thus: Cytokine bead array: IFNγ production by TCR activated CD8 T cells. The format is cell-based. The conditions noted are these: anti-CD3 10 μg/ml. As for the experimental part: Supernatant was removed from T cell cultures at 48 hours and CBAs performed to measure IFNγ production. Data represent mean for duplicate samples. ND=none detected.
as §3
Supernatant from T cell cultures 48 hours after activation as described above were used to measure cytokine production (IL-2, IL-4, IL-6, IFN-γ, TNF, IL-17A and IL-10) using the Th1/Th2/Th17 BD Cytometric Bead Array (CBA) Kit (BD Bioscience). The CBA assay was performed according to manufacturer's instructions.
The effect of TNFR2 co-stimulation with TNF on the differentiation of TCR activated CD8 T cells was determined. […] This effect was synergised by the addition of smac-mimetics or IL-2 (FIG. 23).

Assay [1] deals with CD8 T cells deficient for TNFR2. Kind of assay: Co-stimulation of anti-CD3 activated CD8 T cells deficient for TNFR2 (dilution of cell tracking dyes). The note with it: anti-CD3 10 μg/ml, mSTAR 5 ng/ml, 72 hours. Format: cell-based, mouse. The protocol:
Data are representative examples of triplicate cultures.
as §4, §5
The following T cell stimulations were used: TCR was stimulated using 10 μg/ml plate bound anti-CD3 (clone 145-2c11, WEHI antibody facility, Australia) unless a different concentration was specified. […] The TNFR2 agonist mSTAR was prepared according from HEK293 cells were transiently transfected and cells cultured for 5-7 days, supernatants were purified using anti-Flag affinity chromatography, and the concentrations of the recombinant proteins were determined compared to standard proteins.

Setting [2] is: anti-CD3 10 μg/ml, TNF 5 ng/ml or mSTAR 5 ng/ml, 72 hours.

B1: TNF: Recombinant murine TNF purchased from R&D Systems; wild type, not TNFR2-specific (protein)
chain: LRSSSQNSSDKPVAHVVANHQVEEQLEWLSQRANALLANGMDLKDNQLVVPADGLYLVYSQVLFKGQGCPDYVLLTHTVSRFAISYQEKVNLLSAVKSPCPKDTPEGAELKPWYEPIYLGGVFQLEKGDQLSAEVNLPKYLDFAESGQVYFGVIAL
Regarding B1, the “receptor through which TNF co-stimulates CD4 T cells” value with naïve mouse CD4 T cells (CD4 T cells from WT, tnfr1−/− or tnfr2−/− mice, anti-CD3, TNF 5 ng/ml, 4 days) is reported as “act exclusively through TNFR2; also recorded: co-stimulates CD4 T cells through TNFR2”. Besides, the “CD4 T cell expansion (total live cell number, dilution of cell division dyes)” value with naïve mouse CD4 T cells was “promotes CD4 T cell division and expansion”; in the assay with naïve mouse CD4 T cells (listed as TNFα), “significantly enhanced CD4 T cell expansion in a dose dependent manner”. For the same molecule, the “receptor through which TNF co-stimulates CD8 T cells” value is recorded as “co-stimulates CD8 T cells through TNFR2” with naïve mouse CD8 T cells and “mediated exclusively by TNFR2” in the assay on naïve mouse CD8 T cells (listed as TNFα). Moreover, in the assay on naïve mouse CD8 T cells (plate bound anti-CD3 10 μg/ml, titrated doses of soluble recombinant TNF, over 4 days), the “CD8 T cell expansion (total CD8 T cell numbers, dilution of division tracking dyes)” value was “potent co-stimulator of CD8 T cells; also recorded: potent co-stimulation factor to promote CD8 T cell division and expansion”. The “response of tnfr1−/− CD4 T cells to TNF co-stimulation” value in the assay with tnfr1−/− CD4 T cells was “indistinguishable from WT CD4 T cells”. The “co-stimulation of CD4 T cells in the absence of TNFR2” value in the assay on tnfr2−/− CD4 T cells is given as “no co-stimulation”. In addition, the IFNγ production result with mouse CD8 T cells (TNF 5 ng/ml, supernatant at 48 hours) is recorded as “significantly increased; also recorded: increases IFNγ production”.

B2: mSTAR: TNFR2-specific agonist TNF mutein (Rauert et al., 2010; Chopra et al., 2016), SEQ ID NO:3, produced in HEK293 cells (protein)
chain: ACGCAAAPDIKDLLSRLEELEGLVSSLREQGGGGSLRSSSQNSSDKPVAHVVANHQVEEQLEWLSQRANALLANGMDLKDNQLVVPADGLYLVYSQVLFKGQGCPDYVLLTHTVSRFAISYQEKVNLLSAVKSPCPKDTPEGAELKPWYEPIYLGGVFQLEKGDQLSAEVNLPKYLNFRESGQVYFGVIALGGGGSLRSSSQNSSDKPVAHVVANHQVEEQLEWLSQRANALLANGMDLKDNQLVVPADGLYLVYSQVLFKGQGCPDYVLLTHTVSRFAISYQEKVNLLSAVKSPCPKDTPEGAELKPWYEPIYLGGVFQLEKGDQLSAEVNLPKYLNFRESGQVYFGVIALGGGGSLRSSSQNSSDKPVAHVVANHQVEEQLEWLSQRANALLANGMDLKDNQLVVPADGLYLVYSQVLFKGQGCPDYVLLTHTVSRFAISYQEKVNLLSAVKSPCPKDTPEGAELKPWYEPIYLGGVFQLEKGDQLSAEVNLPKYLNFRESGQVYFGVIAL
With B2, the “CD4 T cell response (dilution of cell tracking dyes, total cell numbers), TNF compared with mSTAR” value in the assay with naïve mouse CD4 T cells (setting [2]) was “can mimic TNF mediated CD4 T cell activation”. For the same molecule, the “CD8 T cell response (dilution of cell division dyes, total cell numbers), mSTAR compared with TNF” value in the assay on naïve mouse CD8 T cells (setting [2]) is on record as “can mimic TNF CD8 T cell activation”. In addition, the “T cell co-stimulation in CD8 T cells deficient for TNFR2” value in assay [1] is “did not induce any T cell co-stimulation; also recorded: does not activate CD8 T cells in the absence of TNFR2”.

B3: IL-2: Recombinant mIL-2 purchased from Peprotech (protein, UniProt P04351 21-169, looked up)
Interleukin-2: APTSSSTSSSTAEAQQQQQQQQQQQQHLEQLLMDLQELLSRMENYRNLKLPRMLTFKFYLPKQATELKDLQCLEDELGPLRHVLDLTQSKSFQLEDAENFISNIRVTVVKLKGSDNTFECQFDDESATVVDFLRRWIAFCQSIISTSPQ
As for B3, the “IFNγ production, effect of addition to TNF co-stimulation” value in the assay on mouse CD8 T cells (TNF 5 ng/ml with Smac-mimetic or IL-2, supernatant at 48 hours) is on record as “synergised”.
